4 molecules from US20110268740A1 can be followed below.

Test [1] deals with M2e-VN (Influenza A virus A/VN/1203/04 (H5N1)). The test can be described thus: ELISA, apparent affinity, purified scFv-msFcγ2c on immobilised M2e-VN.

B1: M2e-VN (peptide)
peptide: SLLTEVETPTRNEWECRCSDSSD
modifications: not checked
For the molecule B1, the EC50 with scFv-D005-msFcγ2c amounted to 32.5 µM; with scFv-E040-msFcγ2c it was 43.2 µM; with scFv-F052-msFcγ2c it was 50.8 µM.

B2: scFv-F052-msFcγ2c (Fc fusion)
chain: DADPAQAAERVMTQSPDALAVSLGERATINCKSSQSLLYSSNNKNYLAWYQKKPGQPPKLLIYWASTRESGVPDRFSGSGSGTEFTLTINSVQAEDVAVYYCQQYFMTPITFGQGTKLEIKGGSSRSSSSGGGGSGGGGQVQLQESGGALVQPGRSLRLSCRTSGLNFGDYPINWVRQAPGKGLEWVGFIKSKSYGVTTEFAASVEGRFTISRDDSRGIAYLQMNSLKTEDTAVYYCTSSSGFLYYFDYWGQGTLVTVSSASTKGPSVTSGQAGRKLEPRVPITQNPCPPLKECPPCAAPDLLGGPSVFIFPPKIKDVLMISLSPMVTCVVVDVSEDDPDVQISWFVNNVEVHTAQTQTHREDYNSTLRVVSALPIQHQDWMSGKEFKCKVNNRALPSPIEKTISKPRGPVRAPQVYVLPPPAEEMTKKEFSLTCMITGFLPAEIAVDWTSNGRTEQNYKNTATVLDSDGSYFMYSKLRVQKSTWERGSLFACSVVHEGLHNHLTTKTISRSLGK
Take B2: the EC50 in test [1] was 0.0459 nM.

B3: scFv-D005-msFcγ2c (Fc fusion)
chain: DADPAQAAELVMTQSPDSLAVSLGERATINCKSSQSVLYTSNNKNYLGWYQQKPGQPPNLLIYWASTRESGVPDRFSGSGSGTDFTLTINSVQAEDVAVYYCQQYFMTPITFGQGTRLEIKGGSSRSSSSGGGGSGGGGEVQLVESGGALVQPGRSLRLSCRTSGLNFGDYPINWVRQAPGKGLEWVGFIKSKSYGVTTEFAASVEGRFTISRDDSRGIAYLQMNSLKTEDTAVYYCTSSSGFLYYFDYWGQGTLVTVSSASTKGPSVTSGQAGRKLEPRVPITQNPCPPLKECPPCAAPDLLGGPSVFIFPPKIKDVLMISLSPMVTCVVVDVSEDDPDVQISWFVNNVEVHTAQTQTHREDYNSTLRVVSALPIQHQDWMSGKEFKCKVNNRALPSPIEKTISKPRGPVRAPQVYVLPPPAEEMTKKEFSLTCMITGFLPAEIAVDWTSNGRTEQNYKNTATVLDSDGSYFMYSKLRVQKSTWERGSLFACSVVHEGLHNHLTTKTISRSLGK
On to B3, for which, in test [1], the concentration giving a half-maximal response (EC50) came out at 0.0515 nM.

B4: scFv-E040-msFcγ2c (Fc fusion)
chain: DADPAQAAELVMTQSPDSLAVSLGERATINCKSSQSVLYSSNNENYLAWYQQKPGQPPKLLIYWASTRESGVPDRFSGSGSGTDFTLTINSVQAEDVAVYYCQQYFMTPITFGQGTRLEIKGGSSRSSSSGGGGSGGGGEVQLLESGGALVQPGRSLRLSCRTSGLNFGDYPINWVRQAPGKGLEWVGFIKSKSYGVTTEFAASVEGRFTISRDDSRGIAYLQMNSLKTEDTAVYYCTSSSGFLYYFDYWGQGTLVTVSSASTKGPSVTSGQAGRKLEPRVPITQNPCPPLKECPPCAAPDLLGGPSVFIFPPKIKDVLMISLSPMVTCVVVDVSEDDPDVQISWFVNNVEVHTAQTQTHREDYNSTLRVVSALPIQHQDWMSGKEFKCKVNNRALPSPIEKTISKPRGPVRAPQVYVLPPPAEEMTKKEFSLTCMITGFLPAEIAVDWTSNGRTEQNYKNTATVLDSDGSYFMYSKLRVQKSTWERGSLFACSVVHEGLHNHLTTKTISRSLGK
B4: in test [1], the EC50 turned out to be 0.0464 nM.

The EC50 is the midpoint of the concentration-response curve.
